Source: publication PMC5770967, “Phosphorylation of the IDP KID Modulates Affinity for KIX by Increasing the Lifetime of the Complex” (Biophysical Journal, 2017)
Read-outs that look alike come from different tables or passages of the source. Non-standard residues stand in square brackets, D forms with d. No end group written: not given here. *: point of attachment. FITC = O=C1OC2(c3ccc(O)cc3Oc3cc(O)ccc32)c2ccc(NC(=S)*)cc21; pS = N[C@@H](COP(=O)(O)O)C(=O)O

Experiments:
KIX KIX [1] = target: KIX KIX (UniProt P45481); assay: NMR; details: cited from earlier work
KIX KIX [2] = target: KIX KIX (UniProt P45481); details: cited from earlier work
[3] = target: T1, KIX domain of CREB-binding protein (UniProt P45481 586-665); assay: stopped-flow fluorescence out-competition dissociation kinetics; KIX:FITC-(p)KID complex rapidly mixed with unlabeled cMybTAD; single exponentials; asymptote gives k_diss; 10 C; 100 mM sodium phosphate pH 7.5, 0.05% Tween; details: both partners purified
[4] = target: T1, KIX domain of CREB-binding protein; assay: as above; details: both partners purified; remark: listed apart in the source
[5] = target: T1, KIX domain of CREB-binding protein; assay: fluorescence polarisation; fluorescence anisotropy equilibrium binding; 1 uM FITC-peptide with varying KIX, 30 min, 10 C; 100 mM sodium phosphate pH 7.5, 0.05% Tween; details: both partners purified
[6] = target: T1, KIX domain of CREB-binding protein; assay: stopped-flow fluorescence association kinetics; pseudo-first-order, KIX in 10-fold or larger excess over FITC-peptide; double exponential fits; 10 C; 100 mM sodium phosphate pH 7.5, 0.05% Tween; details: both partners purified

T1 sequence (P45481 586-665): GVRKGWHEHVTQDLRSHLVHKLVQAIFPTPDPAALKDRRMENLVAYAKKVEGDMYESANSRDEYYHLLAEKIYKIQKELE
KIX KIX, sequence (P45481 586-665): as above
pKID29 KID, sequence (P16220 105-133): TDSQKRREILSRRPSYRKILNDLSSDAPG
pKID KID, sequence (P15337 119-146): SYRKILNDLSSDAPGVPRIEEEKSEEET

Row | half-life of the complex [3] | koff [4] | Kd [5] | k_ass,fast (fast phase of association) [6] | k_ass,slow (slow phase of association) [6] | Molecule | Kd (KIX KIX [1]) | Kd (KIX KIX [2])
1 |  |  |  |  |  | pKID KID (from UniProt P15337) | 1.3 µM | 
2 |  |  |  |  |  | pKID29 KID (from UniProt P16220) |  | 8.3 µM
3 | ~0.01 s | 66.3 ± 4.9 s⁻¹ | 29 ± 1 µM | 7.6e+06 ± 800000 M⁻¹ s⁻¹ | 21.2 ± 2.4 s⁻¹ | {FITC}-DSVTDSQKRREILSRRPSYRKILNDLSSDAP (peptide, UniProt P15337-1 116-146, looked up, also called unphosphorylated KID; source: synthetic peptide, bought: Biomatik) |  | 
4 |  | 35.6 ± 2.2 s⁻¹ | 12.3 ± 0.5 µM | 4.4e+06 ± 200000 M⁻¹ s⁻¹ | 17 ± 1 s⁻¹ | {FITC}-DSVTDSQKRREILSRRPEYRKILNDLSSDAP (peptide, UniProt P15337-1 116-146, looked up, kinase inducible domain (KID) of CREB, UniProt P15337, residues 116-146, with S133E; also called the phosphomimetic; source: synthetic peptide, bought: Biomatik) [FITC-KID-S133E (KID of CREB, residues 116-146, S133E, N-terminus labeled with FITC)] |  | 
5 | ~1 s | 0.81 ± 0.01 s⁻¹ | 0.11 µM | 7.3e+06 ± 300000 M⁻¹ s⁻¹ | 24.2 ± 1.4 s⁻¹ | {FITC}-DSVTDSQKRREILSRRP[pS]YRKILNDLSSDAP (peptide, UniProt P15337-1 116-146, looked up, kinase inducible domain (KID) of CREB, UniProt P15337, residues 116-146 (31 residues), phosphorylated at S133; source: synthetic peptide, bought: Biomatik) [FITC-pKID (phosphorylated KID of CREB, residues 116-146, N-terminus labeled with FITC)] |  | 
